Molecular target: WIPI3-Δloop (human), Q5MNZ6
Assay: ITC; WIPI3 proteins in the sample cell, GB1-tagged ATG2A fragments in the syringe; 25 °C; 50 mM Tris-HCl pH 8.0, 100 mM NaCl, 1 mM EDTA, 1 mM DTT; model of one binding site

Sequence of WIPI3-Δloop (human), Q5MNZ6 (Q5MNZ6 other isoform, or with tags, fused parts or gaps mutant): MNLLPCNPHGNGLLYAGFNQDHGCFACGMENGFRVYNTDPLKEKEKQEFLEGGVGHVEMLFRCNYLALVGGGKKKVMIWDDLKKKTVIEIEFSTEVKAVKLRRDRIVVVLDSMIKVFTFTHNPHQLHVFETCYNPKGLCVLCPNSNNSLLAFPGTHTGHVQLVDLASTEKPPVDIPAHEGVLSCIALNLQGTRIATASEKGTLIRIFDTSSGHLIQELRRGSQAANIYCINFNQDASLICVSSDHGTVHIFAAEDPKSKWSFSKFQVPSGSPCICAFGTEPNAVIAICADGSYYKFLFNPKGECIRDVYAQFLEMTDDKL

Kd: 64.3 µM
Binder: GPIVVRDGYFSRPIGSTD (modifications not checked) [GB1-tagged WIR-peptide ΔN-strand]
